Test results as given in article PMC11305399, “FLT3/CD99 Bispecific Antibody–Based Nanoparticles for Acute Myeloid Leukemia” (Cancer Research Communications, 2024).

Target: Cluster of differentiation 99 (CD99) (Homo sapiens (Human)., UniProt P14209)
Experiment: cell-based or functional assay

Cluster of differentiation 99 (CD99), sequence (P14209 23-185): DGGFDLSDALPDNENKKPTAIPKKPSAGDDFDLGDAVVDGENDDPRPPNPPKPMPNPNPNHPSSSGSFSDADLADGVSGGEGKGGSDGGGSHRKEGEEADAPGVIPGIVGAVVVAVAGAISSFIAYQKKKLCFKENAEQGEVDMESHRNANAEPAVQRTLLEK

phospho-SRC in MV4-11 cells at 24 hours (western blot), 25 μmol/L CD99-A192 vs. A192: 11 fold
B1: CD99-A192 (α-CD99 scFv fused to the amino-terminus of the elastin-like polypeptide A192) (scFv, V domains shown)
VH: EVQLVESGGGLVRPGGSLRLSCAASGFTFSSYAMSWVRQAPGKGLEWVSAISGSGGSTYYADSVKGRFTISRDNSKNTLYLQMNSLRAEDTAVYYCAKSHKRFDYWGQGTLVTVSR
VL: SSELTQDPAVSVALGQTVRITCQGDSLRSYYASWYQQKPGQAPVLVIYGKNNRPSGIPDRFSGSSSGNTASLTITGAQAEDEADYYCNSSFPRTSSVVFGGGTKLTVL
IC50 of cell viability (CCK-8) of MV4-11 cells, 72 hours: 0.4 µmol/L
